This note sets out measurements from PMC10432850, “NME3 binds to phosphatidic acid and mediates PLD6-induced mitochondrial tethering” (The Journal of Cell Biology, 2023).

Usually stoichiometry N stands for the number of molecules, sites or subunits per partner or assembly.

This data set concerns the molecule itself. In words: cross-linking; 4 uM purified protein cross-linked with glutaraldehyde, detected by Western blotting.

B1: NME3^WT-His (natural protein, human, UniProt Q13232 1-169, looked up)
chain: MICLVLTIFANLFPAACTGAHERTFLAVKPDGVQRRLVGEIVRRFERKGFKLVALKLVQASEELLREHYAELRERPFYGRLVKYMASGPVVAMVWQGLDVVRTSRALIGATNPADAPPGTIRGDFCIEVGKNLIHGSDSVESARREIALWFRADELLCWEDSAGHWLYE
notes: NME3 (nucleoside diphosphate kinase 3), human, wild type; also called NME3-His; source: E. coli BL21, purified (HisPur Ni-NTA resin, dialysed); not shown: His, C-terminal, kept
In the case of B1, the binding result is listed as “binds”.

B2: NME3^ΔN-His (domain or fragment, human, UniProt Q13232 18-169, looked up)
chain: TGAHERTFLAVKPDGVQRRLVGEIVRRFERKGFKLVALKLVQASEELLREHYAELRERPFYGRLVKYMASGPVVAMVWQGLDVVRTSRALIGATNPADAPPGTIRGDFCIEVGKNLIHGSDSVESARREIALWFRADELLCWEDSAGHWLYE
notes: NME3 (nucleoside diphosphate kinase 3), human, lacking the N-terminal 17 amino acids (N17); also called N17 truncated NME3; source: E. coli BL21, purified (HisPur Ni-NTA resin, dialysed); not shown: His, C-terminal, kept
As to B2, the “stoichiometry N” value came out at 6.
